Reference: publication PMC9188544, “Mechanism of glycogen synthase inactivation and interaction with glycogenin” (Nature Communications, 2022)

Experiments:
[1] = biological target: T1, human glycogen synthase 1 (GS1) H610E (human, UniProt P13807 1-737, H610E, phosphorylation at S8, S641 and S641/S645 probed by immunoblot (Fig. 4b)); test: co-purification (HisTrap, TEV cleavage, Ni subtraction, Superdex200 gel filtration); GS WT or mutant co-expressed with GN(Y195F) in insect cells, both with N-terminal His6-TEV; lysate loaded on the HisTrap column; settings: partners not purified
T1 construct: glycogen synthase 1 (muscle), human, encoded by GYS1, cDNA NM 002103; also called GS H610E; not shown: His6, N-terminal, cleaved
T1 sequence (looked up): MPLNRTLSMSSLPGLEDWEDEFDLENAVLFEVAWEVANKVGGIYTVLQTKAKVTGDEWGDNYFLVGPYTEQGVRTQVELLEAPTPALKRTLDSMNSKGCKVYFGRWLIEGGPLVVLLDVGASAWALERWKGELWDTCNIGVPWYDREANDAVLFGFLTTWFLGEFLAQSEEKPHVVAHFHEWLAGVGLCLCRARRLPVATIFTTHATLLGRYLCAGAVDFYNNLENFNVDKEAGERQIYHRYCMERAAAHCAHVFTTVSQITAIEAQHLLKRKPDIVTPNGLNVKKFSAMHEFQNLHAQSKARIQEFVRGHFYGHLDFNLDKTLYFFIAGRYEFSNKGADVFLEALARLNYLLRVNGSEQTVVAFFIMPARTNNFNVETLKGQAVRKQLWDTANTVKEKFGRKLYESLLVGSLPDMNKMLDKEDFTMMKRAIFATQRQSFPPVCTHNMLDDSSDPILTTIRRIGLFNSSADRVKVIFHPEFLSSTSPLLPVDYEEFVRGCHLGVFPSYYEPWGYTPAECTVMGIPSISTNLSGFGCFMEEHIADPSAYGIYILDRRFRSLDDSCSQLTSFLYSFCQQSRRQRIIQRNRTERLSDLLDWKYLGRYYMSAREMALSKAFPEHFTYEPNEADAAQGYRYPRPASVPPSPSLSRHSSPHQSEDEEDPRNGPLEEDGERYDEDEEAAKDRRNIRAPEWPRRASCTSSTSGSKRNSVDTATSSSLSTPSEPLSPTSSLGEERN

[2] = biological target: T2, human glycogen synthase 1 (GS1), wild type, pFastBac construct with N-terminal His6-TEV, co-expressed with … (human, UniProt P13807 1-737, phosphorylation at S8, S641 and S641/S645 probed by immunoblot (Fig. 4b)); test: as above; settings: partners not purified
T2 construct: glycogen synthase 1 (muscle), human, encoded by GYS1, cDNA NM 002103; also called GS WT; WT GS; not shown: His6, N-terminal, cleaved
T2 sequence (looked up): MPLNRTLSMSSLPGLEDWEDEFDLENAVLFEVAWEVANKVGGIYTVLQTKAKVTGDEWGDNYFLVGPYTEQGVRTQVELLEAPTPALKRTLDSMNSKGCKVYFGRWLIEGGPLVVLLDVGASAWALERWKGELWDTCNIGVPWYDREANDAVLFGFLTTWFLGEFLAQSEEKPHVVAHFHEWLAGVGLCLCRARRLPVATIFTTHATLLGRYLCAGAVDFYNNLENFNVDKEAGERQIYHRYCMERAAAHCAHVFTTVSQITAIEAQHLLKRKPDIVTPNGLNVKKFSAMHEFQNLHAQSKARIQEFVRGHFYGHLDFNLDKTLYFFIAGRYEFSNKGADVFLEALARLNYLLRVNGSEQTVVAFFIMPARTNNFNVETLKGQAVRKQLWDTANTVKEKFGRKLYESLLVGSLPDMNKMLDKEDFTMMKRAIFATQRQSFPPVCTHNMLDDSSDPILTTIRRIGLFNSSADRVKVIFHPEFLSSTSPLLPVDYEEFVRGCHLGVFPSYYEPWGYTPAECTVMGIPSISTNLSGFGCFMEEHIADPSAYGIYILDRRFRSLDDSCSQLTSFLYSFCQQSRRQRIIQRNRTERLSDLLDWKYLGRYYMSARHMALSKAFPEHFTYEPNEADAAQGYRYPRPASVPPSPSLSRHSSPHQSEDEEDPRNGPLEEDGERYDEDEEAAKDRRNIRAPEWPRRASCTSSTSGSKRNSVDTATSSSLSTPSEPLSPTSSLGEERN

[3] = biological target: T3, human glycogen synthase 1 (GS1) R588A + R591A (human, UniProt P13807 1-737, R588A | R591A, phosphorylation at S8, S641 and S641/S645 probed by immunoblot (Fig. 4b)); test: as above; settings: partners not purified
T3 construct: glycogen synthase 1 (muscle), human, encoded by GYS1, cDNA NM 002103; also called GS R588A + R591A double mutant; not shown: His6, N-terminal, cleaved
T3 sequence (looked up): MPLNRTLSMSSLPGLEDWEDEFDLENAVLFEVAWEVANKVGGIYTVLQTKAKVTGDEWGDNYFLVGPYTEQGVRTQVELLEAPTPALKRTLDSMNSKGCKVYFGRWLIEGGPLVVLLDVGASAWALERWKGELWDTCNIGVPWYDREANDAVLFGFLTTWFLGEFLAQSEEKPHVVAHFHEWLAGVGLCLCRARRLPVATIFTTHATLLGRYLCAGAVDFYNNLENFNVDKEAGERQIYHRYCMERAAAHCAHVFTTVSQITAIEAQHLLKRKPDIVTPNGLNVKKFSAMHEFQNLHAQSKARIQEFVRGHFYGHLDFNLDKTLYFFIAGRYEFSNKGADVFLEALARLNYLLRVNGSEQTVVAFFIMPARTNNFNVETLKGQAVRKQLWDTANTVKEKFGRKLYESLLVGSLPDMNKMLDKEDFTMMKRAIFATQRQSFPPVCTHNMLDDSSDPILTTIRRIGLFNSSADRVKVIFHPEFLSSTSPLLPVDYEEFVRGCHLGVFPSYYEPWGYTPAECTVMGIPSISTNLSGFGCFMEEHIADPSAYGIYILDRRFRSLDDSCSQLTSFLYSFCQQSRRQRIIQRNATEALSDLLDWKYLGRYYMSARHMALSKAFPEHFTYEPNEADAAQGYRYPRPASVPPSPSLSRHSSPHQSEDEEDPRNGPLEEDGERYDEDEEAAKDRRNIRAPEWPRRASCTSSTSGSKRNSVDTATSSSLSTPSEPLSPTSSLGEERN

[4] = biological target: the molecule itself; test: negative-stain electron microscopy; purified co-expressed complex at 0.01-0.02 mg/mL in 25 mM HEPES pH 7.5, 150 mM NaCl, 1 mM TCEP, 10% glycerol; uranyl acetate stain; 2D classes and 3D map (C1, ~22 Å)

B1: human glycogenin 1 (GN1) Y195F, full length, non-glucosylated (enzyme, UniProt P46976-2 1-333, looked up)
chain: MTDQAFVTLTTNDAYAKGALVLGSSLKQHRTTRRLVVLATPQVSDSMRKVLETVFDEVIMVDVLDSGDSAHLTLMKRPELGVTLTKLHCWSLTQYSKCVFMDADTLVLANIDDLFDREELSAAPDPGWPDCFNSGVFVYQPSVETYNQLLHLASEQGSFDGGDQGILNTFFSSWATTDIRKHLPFIYNLSSISIFSYLPAFKVFGASAKVVHFLGRVKPWNYTYDPKTKSVKSEAHDPNMTHPEFLILWWNIFTTNVLPLLQQFGLVKDTCSYVNVEDVSGAISHLSLGEIPAMAQPFVSSEERKERWEQGQADYMGADSFDNIKRKLDTYLQ
notes: glycogenin 1, human, encoded by GYG1, cDNA NM 001184720, full length; expected ~37.5 kDa; the C-terminal GN34 region is modelled as residues 300-332, which fits the 333-residue isoform; Cloned in pFL (with untagged GS) and in pFastBac (co-infected with His6-TEV-GS WT or mutants); Both carry an N-terminal His6 tag and a cleavable site, so they are treated as one molecule; also called GN(Y195F); GN …
Does B1 bind [1]?
Result: binds

Does B1 bind [2]?
Result: binds

Does B1 bind [3]?
Result: binds

And the “stoichiometry N” value [4]?
Its value is 2.
